Assay results from JP2023550785A.
pKd: −log10 of the molar value. Where two headings read alike, the source gives them in different places.

What was measured:
[1] = target: SARS-CoV-2 (BetaCoV/Wuhan-Hu-1/2019) prefusion-stabilized spike (S) protein / S ectodomain trimer (SARS-CoV-2 (BetaCoV/Wuhan-Hu-1/2019)) (UniProt P0DTC2); experiment: SPR (Biacore T200), S ectodomain trimer captured, Fab as analyte
[2] = target: SARS-CoV-2 (BetaCoV/Wuhan-Hu-1/2019) prefusion-stabilized spike (S) protein / S ectodomain trimer (SARS-CoV-2 (BetaCoV/Wuhan-Hu-1/2019)) (UniProt P0DTC2)

Chain of antibody S2P6 (antibody 420 1 1), human monoclonal antibody expressed as recombinant human IgG1 (VH): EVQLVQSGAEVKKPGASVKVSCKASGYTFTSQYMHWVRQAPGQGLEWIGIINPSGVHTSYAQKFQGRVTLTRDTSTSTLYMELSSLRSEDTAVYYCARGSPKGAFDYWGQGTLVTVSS
Chain of antibody S2P6 (antibody 420 1 1), human monoclonal antibody expressed as recombinant human IgG1 (VL): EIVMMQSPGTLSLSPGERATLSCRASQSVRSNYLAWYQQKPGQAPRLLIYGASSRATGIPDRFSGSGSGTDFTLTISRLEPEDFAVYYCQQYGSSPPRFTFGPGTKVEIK
Chain of S2P6 Fab fragment (VH): as the sequence (VH) above
Chain of S2P6 Fab fragment (VL): as the sequence (VL) above

Substance | pKd [1] | pKd [2] | koff [2] [s⁻¹] | kon [2] [M⁻¹ s⁻¹]
S2P6 Fab fragment | 8.15 | – | – | –
antibody S2P6 (antibody 420 1 1), human monoclonal antibody expressed as recombinant human IgG1 | – | > 12.00 | < 1e-07 | 453000
